Results as given in article PMC4864350, “Fluorogenic Substrates for In Situ Monitoring of Caspase-3 Activity in Live Cells” (PLoS ONE, 2016).
Blank lines part the entries; values can stand above or below the molecule they belong to. Non-standard residues stand in square brackets, D forms with d. *: point of attachment. MethylRed = CN(C)c1ccc(/N=N/c2ccccc2C(=O)*)cc1; FAM = 5(6)-carboxyfluorescein; peptoid = not defined here; Ahx = NCCCCCC(=O)O

Columns and labels:
caspase-3 [1] = molecular target: T1, caspase-3 (Homo sapiens, UniProt P42574); test: Kinetic assay of fluorogenic substrates with caspase-3; assay type: biochemical; conditions: substrate range 0.1–8 μM, enzyme 20 nM (1–9) or 15 nM (10–14), n = 3; for Km: fluorescence λEx/Em 485/528 nm, initial rate 0–5 min, Michaelis-Menten
T1 construct: purchased R&D systems, USA
T1 sequence (P42574 29-175 limits assumed): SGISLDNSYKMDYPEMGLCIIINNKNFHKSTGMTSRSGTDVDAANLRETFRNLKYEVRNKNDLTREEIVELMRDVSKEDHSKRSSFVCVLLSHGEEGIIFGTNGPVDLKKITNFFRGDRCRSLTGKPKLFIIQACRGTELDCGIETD
T1 sequence (P42574 176-277 limits assumed): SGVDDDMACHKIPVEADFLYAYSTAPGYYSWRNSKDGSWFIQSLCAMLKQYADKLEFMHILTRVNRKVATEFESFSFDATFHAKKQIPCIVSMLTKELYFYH
Protocol: (§1) The ability of […] (bearing MR as the quencher of choice) to act as s substrate for caspase-3, as well as caspase-7, was investigated by determining the catalytic efficiency (kcat/KM) for each substrate with both enzymes (Table 2).
(§2) Caspase-3 or caspase-7 (R&D systems, USA) was added to 100 μL of caspase assay buffer with substrates 1–14 at concentrations from 0.1 μM to 8 μM in a 96-well plate (n = 3) to give final enzyme concentration of 20 nM (1–9) or 15 nM (10–14). Fluorescence (λEx/Em 485/528 nm) was recorded on a Biotek Synergy HT Multi-Mode Microplate Reader every 2 min. Control samples had the same composition but no enzyme. The rate (μM/min) was calibrated using a 5(6)-carboxyfluorescein conversion factor (0.0055 μM/RFU) and data plotted against time (min). For initial cleavage rate (0–5 min), plots were fitted using linear regression analysis and the Michaelis-Menten data generated using GraphPad Prism 5.

caspase-7 [2] = molecular target: T2, caspase-7 (Homo sapiens, UniProt P55210); test: Kinetic assay of fluorogenic substrates with caspase-7; assay type: biochemical; conditions: substrate range 0.1–8 μM; enzyme 20 nM (1–9) or 15 nM (10–14); n = 3
T2 construct: purchased R&D systems, USA
T2 sequence (P55210 24-198 limits assumed): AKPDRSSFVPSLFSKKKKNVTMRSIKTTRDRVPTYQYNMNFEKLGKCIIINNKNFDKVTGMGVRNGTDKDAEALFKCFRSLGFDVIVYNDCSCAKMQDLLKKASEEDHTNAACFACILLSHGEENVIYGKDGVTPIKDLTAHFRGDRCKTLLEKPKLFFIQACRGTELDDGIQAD
T2 sequence (P55210 207-303 limits assumed): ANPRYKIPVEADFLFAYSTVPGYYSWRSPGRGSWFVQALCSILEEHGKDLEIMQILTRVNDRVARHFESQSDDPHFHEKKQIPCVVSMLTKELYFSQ
Protocol: as §1, §2

caspase-3 [3] = molecular target: T1, caspase-3; test: Caspase-3-mediated cleavage at high enzyme concentration analysed by MALDI-TOF MS; assay type: biochemical; conditions: 10–20 μM substrate, 0.4 μM enzyme; for cleavage by caspase-3 (MALDI-TOF MS): 2 h, 37 °C; for parent compound after incubation with caspase-3: after 2h, MALDI-TOF MS
Protocol: (§3) To confirm how specific 11, 12 and 14 were for caspase-3, these substrates were incubated with high enzyme concentrations (10–20 μM substrate, 0.4 μM enzyme) and the caspase-mediated cleavage analysed by MALDI-TOF MS.
(§4) S2 Fig. (A) MALDI-TOF MS spectra of substrate 11 (sequence Asp-Ala-Pro-Asp). (B) After incubation (20 µM) with Caspase-3 for 2 h. (C) After incubation (20 µM) with Caspase-7 for 2 h (detected as the PBS adduct.)
(§5) Caspase-3 or caspase-7 (R&D systems, USA) was added to 100 µL of caspase assay buffer (final enzyme concentration 0.4 µM) with the substrates at 10–20 µM. The samples were incubated in Eppendorf Thermomixer® Comfort shaking at 1200 rpm for 2h at 37 °C. MALDI -TOF mass spectra were recorded as described in Table S1 .
(§6) (1 picture or pasted object on this page, not shown here)

caspase-7 [4] = molecular target: T2, caspase-7; test: Caspase-7-mediated cleavage at high enzyme concentration analysed by MALDI-TOF MS; assay type: biochemical; conditions: 10–20 μM substrate, 0.4 μM enzyme, 2 h; for cleavage by caspase-7 (MALDI-TOF MS): 37 °C; for cleavage site with caspase-7: MALDI-TOF MS
Protocol: as §3, §4, §5, §6

caspase-3 [5] = molecular target: T3, caspase-3 (UniProt P42574)
T3 sequence: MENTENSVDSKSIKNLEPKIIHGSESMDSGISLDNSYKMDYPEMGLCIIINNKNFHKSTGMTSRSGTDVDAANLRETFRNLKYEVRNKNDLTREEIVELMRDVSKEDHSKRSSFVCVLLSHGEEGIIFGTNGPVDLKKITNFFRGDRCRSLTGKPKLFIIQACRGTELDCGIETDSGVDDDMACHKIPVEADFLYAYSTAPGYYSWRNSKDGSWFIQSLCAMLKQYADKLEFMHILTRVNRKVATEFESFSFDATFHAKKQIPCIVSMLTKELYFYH

caspase-3 [6] = molecular target: T3, caspase-3; remark: listed apart in the source

Molecule: substrate 11: FRET fluorogenic substrate, recognition Asp-Ala-Pro-Asp, quencher MR, C-terminal peptoid ({FAM-Ahx}-DAPD[Ahx]K(MethylRed)-{peptoid-NH2}; reading uncertain; also: printed as Asp-Ala-Pro-Asp)
- Km (caspase-3 [1]): 0.4 ± 0.1 µM
- Kcat, Caspase-3 (caspase-3 [1]): 0.0217 ± 0.0017 s⁻¹
- kcat/KM (catalytic efficiency), Caspase-3 (caspase-3 [1]; listed as 11): 56700 M⁻¹ s⁻¹
- Km (caspase-7 [2]): 4.9 ± 2.1 µM
- kcat, Caspase-7 (caspase-7 [2]): 0.0267 ± 0.005 s⁻¹
- kcat/KM, Caspase-7 (caspase-7 [2]): 5000 M⁻¹ s⁻¹
- cleavage by caspase-3 (MALDI-TOF MS) (caspase-3 [3]): cleaved by caspase-3 at the X1 position
- parent compound after incubation with caspase-3 (caspase-3 [3]): no longer detected
- cleavage by caspase-7 (MALDI-TOF MS) (caspase-7 [4]): (partially) cleaved by caspase-7
- cleavage site with caspase-7 (caspase-7 [4]): between the Ahx spacer and the Lys(MR)

Molecule: substrate 12: FRET fluorogenic substrate, recognition Asp-Leu-Pro-Asp, quencher MR, C-terminal peptoid ({FAM-Ahx}-DLPD[Ahx]K(MethylRed)-{peptoid-NH2}; reading uncertain; also: printed as Asp-Leu-Pro-Asp)
- Km (caspase-3 [1]): 0.2 ± 0.1 µM
- Kcat, Caspase-3 (caspase-3 [1]): 0.0233 ± 0.0033 s⁻¹
- kcat/KM (catalytic efficiency), Caspase-3 (caspase-3 [1]; listed as 12): 96700 M⁻¹ s⁻¹
- Km (caspase-7 [2]): 1.4 ± 0.3 µM
- kcat, Caspase-7 (caspase-7 [2]): 0.015 ± 0.0012 s⁻¹
- kcat/KM, Caspase-7 (caspase-7 [2]): 12000 M⁻¹ s⁻¹
- cleavage by caspase-3 (MALDI-TOF MS) (caspase-3 [3]): cleaved by caspase-3 at the X1 position
- parent compound after incubation with caspase-3 (caspase-3 [3]): no longer detected
- cleavage by caspase-7 (MALDI-TOF MS) (caspase-7 [4]): (partially) cleaved by caspase-7
- cleavage site with caspase-7 (caspase-7 [4]): between the Ahx spacer and the Lys(MR)

Molecule: substrate 14: FRET fluorogenic substrate, recognition Asp-Val-Pro-Asp, quencher MR, C-terminal peptoid ({FAM-Ahx}-DVPD[Ahx]K(MethylRed)-{peptoid-NH2}; reading uncertain; also: printed as Asp-Val-Pro-Asp)
- Km (caspase-3 [1]): 0.2 ± 0.04 µM
- Kcat, Caspase-3 (caspase-3 [1]): 0.0283 ± 0.0017 s⁻¹
- Km (caspase-7 [2]): 3.6 ± 0.9 µM
- kcat, Caspase-7 (caspase-7 [2]): 0.0233 ± 0.0033 s⁻¹
- kcat/KM, Caspase-7 (caspase-7 [2]): 6700 M⁻¹ s⁻¹
- cleavage by caspase-3 (MALDI-TOF MS) (caspase-3 [3]): cleaved by caspase-3 at the X1 position
- parent compound after incubation with caspase-3 (caspase-3 [3]): no longer detected
- cleavage by caspase-7 (MALDI-TOF MS) (caspase-7 [4]): (partially) cleaved by caspase-7
- cleavage site with caspase-7 (caspase-7 [4]): between the Ahx spacer and the Lys(MR)

Molecule: {FAM-Ahx}-DLPD[Ahx]K(MethylRed)-{peptoid-NH2} (reading uncertain; also: printed as FAM-Ahx-Asp-Leu-Pro-Asp-Ahx-Lys(MR)-peptoid) [fluorogenic substrate 12 (FAM-Ahx-Asp-Leu-Pro-Asp-Ahx-Lys(MR)-peptoid)]
- KM of cleavage by caspase-3 (fluorogenic Michaelis-Menten kinetics, substrate 0.1-8 μM, 15 nM enzyme) (caspase-3 [5]): 0.2 µM

More lines, now with the values ahead:

- KM of cleavage by caspase-3 (fluorogenic Michaelis-Menten kinetics, substrate 0.1-8 μM, 15 nM enzyme) (caspase-3 [5]): 0.4 µM
Molecule: {FAM-Ahx}-DAPD[Ahx]K(MethylRed)-{peptoid-NH2} (reading uncertain; also: printed as Asp-Ala-Pro-Asp) [fluorogenic substrate 11 (FAM-Ahx-Asp-Ala-Pro-Asp-Ahx-Lys(MR)-peptoid)]

- KM of cleavage by caspase-3 (fluorogenic Michaelis-Menten kinetics, substrate 0.1-8 μM, 15 nM enzyme) (caspase-3 [5]): 0.2 µM
Molecule: {FAM-Ahx}-DVPD[Ahx]K(MethylRed)-{peptoid-NH2} (reading uncertain; also: printed as Asp-Val-Pro-Asp) [fluorogenic substrate 14 (FAM-Ahx-Asp-Val-Pro-Asp-Ahx-Lys(MR)-peptoid)]

- KM of cleavage by caspase-3 (fluorogenic Michaelis-Menten kinetics) (caspase-3 [6]): 1.1 µM
Molecule: {FAM-Ahx}-DLPDK(MethylRed)-{Ahx-peptoid} (reading uncertain; also: printed as FAM-Ahx-Asp-Leu-Pro-Asp-Lys(MR)-Ahx-peptoid) [fluorogenic substrate 27 (FAM-Ahx-Asp-Leu-Pro-Asp-Lys(MR)-Ahx-peptoid)]
